Common to all, as to settings: glycan lost; control: wild type
Data set [1] can be described thus: Nppa, Rcan1 qPCR ± angiotensin II, rat cardiomyocytes. For orientation: In qPCR the cycle at which signal appears reflects the starting amount.
The nature of data set [2]: NFAT promoter activity with TRPC6 antagonist.
Data set [3] is described as follows: cycloheximide chase, rate of YFP fluorescence decline.
A short description of data set [4]: whole-cell patch clamp, HEK-293T. A general note: In patch-clamp work, channel activity is measured electrically.

B1: TRPC6: T221A (protein)
parent chain: MSQSPAFGPRRGSSPRGAAGAAARRNESQDYLLMDSELGEDGCPQAPLPCYGYYPCFRGSDNRLAHRRQTVLREKGRRLANRGPAYMFSDRSTSLSIEEERFLDAAEYGNIPVVRKMLEECHSLNVNCVDYMGQNALQLAVANEHLEITELLLKKENLSRVGDALLLAISKGYVRIVEAILSHPAFAEGKRLATSPSQSELQQDDFYAYDEDGTRFSHDVTPIILAAHCQEYEIVHTLLRKGARIERPHDYFCKCNDCNQKQKHDSFSHSRSRINAYKGLASPAYLSLSSEDPVMTALELSNELAVLANIEKEFKNDYKKLSMQCKDFVVGLLDLCRNTEEVEAILNGDVETLQSGDHGRPNLSRLKLAIKYEVKKFVAHPNCQQQLLSIWYENLSGLRQQTMAVKFLVVLAVAIGLPFLALIYWFAPCSKMGKIMRGPFMKFVAHAASFTIFLGLLVMNAADRFEGTKLLPNETSTDNAKQLFRMKTSCFSWMEMLIISWVIGMIWAECKEIWTQGPKEYLFELWNMLDFGMLAIFAASFIARFMAFWHASKAQSIIDANDTLKDLTKVTLGDNVKYYNLARIKWDPSDPQIISEGLYAIAVVLSFSRIAYILPANESFGPLQISLGRTVKDIFKFMVIFIMVFVAFMIGMFNLYSYYIGAKQNEAFTTVEESFKTLFWAIFGLSEVKSVVINYNHKFIENIGYVLYGVYNVTMVIVLLNMLIAMINSSFQEIEDDADVEWKFARAKLWFSYFEEGRTLPVPFNLVPSPKSLFYLLLKLKKWISELFQGHKKGFQEDAEMNKINEEKKLGILGSHEDLSKLSLDKKQVGHNKQPSIRSSEDFHLNSFNNPPRQYQKIMKRLIKRYVLQAQIDKESDEVNEGELKEIKQDISSLRYELLEEKSQNTEDLAELIRELGEKLSMEPNQEETNR
Consider B1, for which the “other: response to angiotensin II” value in data set [1] is “no change”. Further, in data set [2], the “other: antagonist sensitivity” value is “no change”. For the same protein, in data set [3], the degradation_or_half_life entry is “decreases”. Also, the “other: channel current, other: percent increase in current” value in data set [4] is listed as “increases”.

Source of the values: PMC10014292.
